From patent US20230348858, “COMPOSITIONS AND METHODS FOR PROMOTING PROLIFERATION IN CARDIOMYOCYTES” (THE TRUSTEES OF INDIANA UNIVERSITY, published 2023) come the findings set out here.

The series has as its target Brg1 helicase domain D1D2 (Mus musculus, UniProt Q3TKT4 SEQ:1-431). Kind of series: EMSA; 10 mM HEPES-KOH pH 7.3, 10 mM NaCl, 1 mM MgCl2, 1 mM DTT, tRNA carrier, room temp. The following applies: tags: MBP fusion; label: 5'-biotin. On the procedure: Biotin-labelled RNA control probe: [0158] Biotin—5′[…]-3′ (SEQ ID NO 25); and Biotin-labelled RNA probe with m⁶A: [0159] Biotin—5′[…](m⁶A)[…]-3′ (SEQ ID NO 26); were synthesized by Gene Link (Orlando, Fla.). EMSA was performed by using the LightShift™ Chemiluminescent RNA EMSA Kit (Cat. 20158, Thermo Scientific). The labelled probe was incubated with appropriate amounts of recombinant proteins in 10 μl in the 1× binding buffer (10 mM HEPES-KOH, pH 7.3, 10 mM NaCl, 1 mM MgCl2, 1 mM DTT) with 5 μg tRNA carrier at room temperature for 30 min. The reactions were then loaded onto 1% 0.5× TBE agarose gel and transferred to Bright Star Plus positive charged membrane. The biotin-labelled probes were detected and quantified subsequently using Odyssey Infrared Imaging System. The shifted signals were quantified and plotted against amount of the MBP-D1D2 protein ((SEQ ID NO 27) coupled to (SEQ ID NO 2)) with GraphPad Prism (GraphPad). The software facilitates the fitting of nonlinear regression model and calculation of Kd values based on the fitting curve. The errors and r² values were also generated from the fitting curve.

Brg1 helicase domain D1D2, sequence (Q3TKT4 774-1204): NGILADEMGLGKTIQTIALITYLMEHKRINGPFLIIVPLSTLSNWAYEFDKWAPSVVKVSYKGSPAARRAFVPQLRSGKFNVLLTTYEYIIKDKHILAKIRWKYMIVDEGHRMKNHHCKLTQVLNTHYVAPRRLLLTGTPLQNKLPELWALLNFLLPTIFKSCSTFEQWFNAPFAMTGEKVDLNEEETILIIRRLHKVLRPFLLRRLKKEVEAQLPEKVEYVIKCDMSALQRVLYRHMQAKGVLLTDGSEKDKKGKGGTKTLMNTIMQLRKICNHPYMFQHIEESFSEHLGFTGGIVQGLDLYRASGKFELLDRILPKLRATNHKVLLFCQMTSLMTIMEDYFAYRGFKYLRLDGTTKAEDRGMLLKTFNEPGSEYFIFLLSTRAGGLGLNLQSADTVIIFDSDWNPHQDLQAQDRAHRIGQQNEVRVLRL

B1: Bmp10 RNA probe with m6A (49 nt) (ssRNA)
RNA: UCGUCAUGGCUGAACUGCGGUUGUACACGCUGGUGCAGAGAGAUCGCAU
modifications: m6A at A25 (M2 adenosine)
Consider B1, for which the Kd was determined as 176 nM.
